From patent US20160237119A1 (UNIVERSITY OF TOKYO, published 2016) come the findings set out here.

Bridges are numbered along the chain shown (N, C = ends). Roman numbers before positions name the chains, in order. Primed or numbered codes have the meaning given here. Where no end group is shown, it is not given here. [ ]: non-standard residue; d: D form. NMeW = CN[C@@H](Cc1c[nH]c2ccccc12)C(=O)O; NMeR = CN[C@@H](CCCNC(=N)N)C(=O)O; NMeF = CN[C@@H](Cc1ccccc1)C(=O)O; NMeT = CN[C@H](C(=O)O)[C@@H](C)O; NMeE = CN[C@@H](CCC(=O)O)C(=O)O; NMeQ = CN[C@@H](CCC(N)=O)C(=O)O; NMeD = CN[C@@H](CC(=O)O)C(=O)O; NMeN = CN[C@@H](CC(N)=O)C(=O)O; NMeV = CN[C@H](C(=O)O)C(C)C; NMeC = CN[C@@H](CS)C(=O)O; BMH′ = not defined here

Sequences and labels used below:
B1: D4-3scr (peptide)
peptide: {CH2CO}-YERVNHLFRNQTWDRCG
modifications: thioether N-16
notes: Negative control; also called negative control peptide
B2: D4-3NMe (peptide)
peptide: {CH2CO}-YRQFN[NMeR]RTHEVWNLD[NMeC]G
modifications: thioether N-16
notes: also called NMe (N6 + N16); N-methylated D4-3
B3: D4-3 dimeric peptide, linker Bis-MAL-PEG11 (peptide)
peptide: {CH2CO}-YRQFNRRTHEVWNLDCGC(Bis‑MAL‑PEG11)
modifications: thioether N-16; not fully specified (residue 1); also: dimer: two copies joined by Bis-MAL-PEG11 at Cys18
notes: Two macrocyclic peptides joined through their C-terminal Cys by Bis-MAL-PEG11; also called D4-3 Bis-MAL-PEG11
B4: D5-4 dimeric peptide, linker Bis-MAL-PEG3 (peptide)
peptide 1: [dY]WYYAWDQTYKAFPCG
peptide 2: [dY]WYYAWDQTYKAFPCG
modifications: thioether I:N-I:15, II:N-II:15 via Ac; not fully specified (N-terminus, bridges); also: dimer: two copies joined by Bis-MAL-PEG3 through an added C-terminal Cys (handle not in letters)
notes: Two macrocyclic peptides joined through their C-terminal Cys by Bis-MAL-PEG3; also called D5-4 Bis-MAL-PEG3; not shown: C-terminal handle of each copy (spacer residue plus Cys)
B5: D4-3scr dimeric peptide, linker BMH (peptide)
peptide: {CH2CO}-YERVNHLFRNQTWDRCGC(BMH′)
modifications: thioether N-16; also: dimer: two copies joined by BMH at Cys18
notes: Negative control dimer; also called D4-3scr BMH
B6: D4-3 dimeric peptide, linker BMH (peptide)
peptide: {CH2CO}-YRQFNRRTHEVWNLDCGC(BMH′)
modifications: thioether N-16; not fully specified (residue 1); also: dimer: two copies joined by BMH at Cys18
notes: Two macrocyclic peptides joined through their C-terminal Cys by BMH; also called D4-3 BMH
B7: D4-3 dimeric peptide, linker Bis-MAL-PEG3 (peptide)
peptide: {CH2CO}-YRQFNRRTHEVWNLDCGC(Bis‑MAL‑PEG3)
modifications: thioether N-16; not fully specified (residue 1); also: dimer: two copies joined by Bis-MAL-PEG3 at Cys18
notes: Two macrocyclic peptides joined through their C-terminal Cys by Bis-MAL-PEG3; also called D4-3 Bis-MAL-PEG3
B8: D5-4 dimeric peptide, linker Bis-MAL-PEG11 (peptide)
peptide 1: [dY]WYYAWDQTYKAFPCG
peptide 2: [dY]WYYAWDQTYKAFPCG
modifications: thioether I:N-I:15, II:N-II:15 via Ac; not fully specified (N-terminus, bridges); also: dimer: two copies joined by Bis-MAL-PEG11 through an added C-terminal Cys (handle not in letters)
notes: Two macrocyclic peptides joined through their C-terminal Cys by Bis-MAL-PEG11; also called D5-4 Bis-MAL-PEG11; not shown: C-terminal handle of each copy (spacer residue plus Cys)
B9: D5-4 dimeric peptide, linker BMH (peptide)
peptide 1: [dY]WYYAWDQTYKAFPCG
peptide 2: [dY]WYYAWDQTYKAFPCG
modifications: thioether I:N-I:15, II:N-II:15 via Ac; not fully specified (N-terminus, bridges); also: dimer: two copies joined by BMH through an added C-terminal Cys (handle not in letters)
notes: Two macrocyclic peptides joined through their C-terminal Cys by BMH; also called D5-4 BMH; not shown: C-terminal handle of each copy (spacer residue plus Cys)
B10: D4-3NMe dimeric peptide, linker Bis-MAL-PEG11 (peptide)
peptide: {CH2CO}-YRQFN[NMeR]RTHEVWNLD[NMeC]GC(Bis‑MAL‑PEG11)
modifications: thioether N-16; also: dimer via Bis-MAL-PEG11
notes: also called D4-3NMe Bis-MAL-PEG11; dimerized N-methylated D4-3 peptide
B11: N14, N-methylated D4-3 peptide (peptide)
peptide: {CH2CO}-YRQFNRRTHEVWNLDCG
modifications: thioether N-16; not fully specified (residues 1, 14); also: one N-methylated residue, position given only by label N14

In the first experiment the target is T1, c-Met-Fc chimera protein (UniProt P08581 25-932, limits assumed).
T1 construct: Captured on the SPR chip by an anti-IgG antibody; not shown: Fc part
T1 sequence (P08581 25-932 limits assumed, change not shown): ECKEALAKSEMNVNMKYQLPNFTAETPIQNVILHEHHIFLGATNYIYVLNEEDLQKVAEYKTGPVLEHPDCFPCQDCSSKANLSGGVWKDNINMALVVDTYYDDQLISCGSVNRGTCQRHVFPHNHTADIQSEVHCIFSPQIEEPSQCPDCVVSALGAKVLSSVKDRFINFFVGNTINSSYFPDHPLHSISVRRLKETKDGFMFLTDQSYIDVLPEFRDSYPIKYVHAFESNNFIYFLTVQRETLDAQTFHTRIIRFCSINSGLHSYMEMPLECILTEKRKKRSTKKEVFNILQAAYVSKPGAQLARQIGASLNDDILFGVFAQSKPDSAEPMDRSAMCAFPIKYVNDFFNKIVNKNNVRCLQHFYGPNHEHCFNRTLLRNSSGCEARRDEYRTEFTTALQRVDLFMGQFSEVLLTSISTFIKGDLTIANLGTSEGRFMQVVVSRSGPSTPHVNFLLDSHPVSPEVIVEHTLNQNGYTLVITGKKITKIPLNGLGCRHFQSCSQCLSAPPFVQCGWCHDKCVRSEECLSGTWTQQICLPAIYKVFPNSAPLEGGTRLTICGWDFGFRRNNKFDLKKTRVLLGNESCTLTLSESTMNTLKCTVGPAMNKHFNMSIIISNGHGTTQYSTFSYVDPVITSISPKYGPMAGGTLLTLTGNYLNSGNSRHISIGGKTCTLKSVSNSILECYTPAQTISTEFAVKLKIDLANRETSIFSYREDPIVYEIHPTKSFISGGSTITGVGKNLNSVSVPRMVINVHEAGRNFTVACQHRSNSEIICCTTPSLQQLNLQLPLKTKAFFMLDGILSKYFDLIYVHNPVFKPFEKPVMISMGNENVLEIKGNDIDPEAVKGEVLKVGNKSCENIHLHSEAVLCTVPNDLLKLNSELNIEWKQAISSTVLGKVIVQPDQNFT
The experiment is described as follows: SPR (Biacore), c-Met-Fc captured by anti-IgG on CM5, single-cycle kinetics. How it is done: (§1) As a sensor chip, Sensor Chip CM5 was used and an anti-IgG antibody was immobilized on a measurement lane and a control lane by using Human Antibody Capture Kit.
(§2) On the measurement lane was immobilized c-Met-Fc, while on the control lane was immobilized Fc protein.
(§3) As a running buffer, HBS-EP+ buffer containing 0.1% DMSO was used and a dissociation constant of the thioether macrocyclic peptide was calculated at 5 different concentrations by using the single-kinetics method.
For B1, the binding result is on record as “no binding”.

For the molecule {CH2CO}-[dY]WYYAWDQTYKAFPCG (thioether N-15, also called D5-4 peptide; D5-4 Monomer) [D5-4], binding was characterised by a dissociation constant (Kd) of 4.6 nM, the koff amounted to 0.021 s⁻¹ and the kon is 4.5e+06 M⁻¹ s⁻¹.

{CH2CO}-YISWNEFNSPNWRFITCG (thioether N-17, also called L5-2 peptide; L5-2 Monomer) [L5-2] displayed a Kd of 5.4 nM, a koff of 0.012 s⁻¹ and a kon of 2.3e+06 M⁻¹ s⁻¹.

B2 registered a Kd of 5.2 nM, a koff of 0.0021 s⁻¹ and a kon of 390000 M⁻¹ s⁻¹.

In another experiment the target is T1, c-Met-Fc chimera protein. The experiment is described as above. The source holds these as a separate data set. How it is done: as §1, §2, §3
B3 came in with a Kd of 0.9 nM, a koff of 0.0011 s⁻¹ and a kon of 1.2e+06 M⁻¹ s⁻¹.

In turn, B4 came in with a Kd of 4.7 nM, a koff of 0.00054 s⁻¹ and a kon of 120000 M⁻¹ s⁻¹.

With B5, the binding result is listed as “no binding”.

Molecule B6 showed a dissociation constant Kd of 0.45 nM, an off-rate constant (koff) of 0.00091 s⁻¹ and a kon of 2e+06 M⁻¹ s⁻¹.

With {CH2CO}-[dY]WYYAWDQTYKAFPCG (thioether N-15, also called D5-4 peptide; D5-4 Monomer) [D5-4], the Kd was 4.6 nM, the koff was 0.021 s⁻¹ and the kon stood at 4.5e+06 M⁻¹ s⁻¹.

In turn, B7 gave a Kd of 0.64 nM, a koff of 0.0007 s⁻¹ and an on-rate constant (kon) of 1.1e+06 M⁻¹ s⁻¹.

Turning to B8, the Kd was determined as 2.1 nM, the koff was 0.011 s⁻¹ and the kon is 5.3e+06 M⁻¹ s⁻¹.

The molecule {CH2CO}-YISWNEFNSPNWRFITCG (thioether N-17, also called L5-2 peptide; L5-2 Monomer) [L5-2] showed a Kd of 5.4 nM, a koff of 0.012 s⁻¹ and a kon of 2.3e+06 M⁻¹ s⁻¹.

The molecule B2 yielded a Kd of 5.2 nM, a koff of 0.0021 s⁻¹ and a kon of 390000 M⁻¹ s⁻¹.

B9 came in with a Kd of 12 nM, a koff of 0.00055 s⁻¹ and a kon of 46000 M⁻¹ s⁻¹.

The molecule B10 displayed a Kd of 0.81 nM, a koff of 0.0004 s⁻¹ and an on-rate constant (kon) of 490000 M⁻¹ s⁻¹.

The next experiment concerns the target T1, c-Met-Fc chimera protein. The experiment is described as follows: SPR presumed (Biacore as in 9-1; method not given), c-Met-Fc on chip.
As for {CH2CO}-YRQF[NMeN]RRTHEVWNLDCG (thioether N-16 (inferred)) [N5, N-methylated D4-3 peptide], the Kd is 200 nM, the koff is 0.0039 s⁻¹ and the kon stood at 19000 M⁻¹ s⁻¹.

{CH2CO}-YRQFNR[NMeR]THEVWNLDCG (thioether N-16) [D4-3-N7]: the Kd is 130 nM.

{CH2CO}-YRQFNRRTHEVW[NMeN]LDCG (thioether N-16) [N13, N-methylated D4-3 peptide]: the Kd worked out at 33 nM, the koff was determined as 0.0026 s⁻¹ and the kon amounted to 78000 M⁻¹ s⁻¹.

The molecule {CH2CO}-YRQFNRRTHE[NMeV]WNLDCG (thioether N-16) [N11, N-methylated D4-3 peptide] registered a Kd of 350 nM, a koff of 0.0051 s⁻¹ and a kon of 15000 M⁻¹ s⁻¹.

For the molecule {CH2CO}-YRQFNRR[NMeT]HEVWNLDCG (thioether N-16) [D4-3-N8], binding was characterised by a dissociation constant (Kd) of 220 nM, the koff stood at 0.006 s⁻¹ and the kon turned out to be 27000 M⁻¹ s⁻¹.

In turn, {CH2CO}-Y[NMeR]QFNRRTHEVWNLDCG (thioether N-16 (inferred)) [N2, N-methylated D4-3 peptide] showed a Kd of 14 nM, a koff of 0.01 s⁻¹ and a kon of 710000 M⁻¹ s⁻¹.

{CH2CO}-YRQFNRRTHEVWNLD[NMeC]G (thioether N-16 (inferred)) [N16, N-methylated D4-3 peptide]: binding was characterised by a dissociation constant (Kd) of 10 nM, the koff amounted to 0.01 s⁻¹ and the kon amounted to 980000 M⁻¹ s⁻¹.

{CH2CO}-YR[NMeQ]FNRRTHEVWNLDCG (thioether N-16 (inferred)) [N3, N-methylated D4-3 peptide] displayed a Kd of 120 nM, a koff of 0.0031 s⁻¹ and a kon of 27000 M⁻¹ s⁻¹.

In the case of {CH2CO}-YRQFN[NMeR]RTHEVWNLDCG (thioether N-16) [D4-3-N6], the equilibrium dissociation constant (Kd) is 34 nM, the koff amounted to 0.0041 s⁻¹ and the kon stood at 120000 M⁻¹ s⁻¹.

Turning to {CH2CO}-YRQ[NMeF]NRRTHEVWNLDCG (thioether N-16 (inferred)) [N4, N-methylated D4-3 peptide], binding was put at a Kd of 79 nM, the off-rate (koff) was determined as 0.0096 s⁻¹ and the kon is 120000 M⁻¹ s⁻¹.

In turn, {CH2CO}-YRQFNRRTH[NMeE]VWNLDCG (thioether N-16) [N10, N-methylated D4-3 peptide] had a Kd of 300 nM, a koff of 0.0075 s⁻¹ and a kon of 25000 M⁻¹ s⁻¹.

In turn, {CH2CO}-YRQFNRRTHEVWNL[NMeD]CG (thioether N-16 (inferred)) [N15, N-methylated D4-3 peptide] yielded a Kd of 160 nM, a koff of 0.046 s⁻¹ and a kon of 300000 M⁻¹ s⁻¹.

In turn, B11 registered a Kd of 290 nM, a koff of 0.0059 s⁻¹ and a kon of 21000 M⁻¹ s⁻¹.

As for {CH2CO}-YRQFNRRTHEV[NMeW]NLDCG (thioether N-16) [N12, N-methylated D4-3 peptide], the Kd was 160 nM, the koff stood at 0.0086 s⁻¹ and the kon stood at 55000 M⁻¹ s⁻¹.

Another experiment concerns the target T1, c-Met-Fc chimera protein. The description is as above. The source holds these as a separate data set.
For the molecule {CH2CO}-YRQFNRRTHEVWNLD[NMeC]G (thioether N-16 (inferred)) [N16, N-methylated D4-3 peptide], the dissociation constant (Kd) came out at 10 nM, the koff came to 0.01 s⁻¹ and the kon turned out to be 980000 M⁻¹ s⁻¹.

{CH2CO}-YRQFN[NMeR]RTHEVWNLDCG (thioether N-16) [D4-3-N6] yielded a Kd of 34 nM, a koff of 0.0041 s⁻¹ and a kon of 120000 M⁻¹ s⁻¹.

B2 yielded a Kd of 5.2 nM, a koff of 0.0021 s⁻¹ and a kon of 390000 M⁻¹ s⁻¹.
